B1: MMP11 (Enzo) (protein)
chain: FVLSGGRWEKTDLTYRILRFPWQLVQEQVRQTMAEALKVWSDVTPLTFTEVHEGRADIMIDFARYWHGDDLPFDGPGGILAHAFFPKTHREGDVHFDYDETWTIGDDQGTDLLQVAAHEFGHVLGLQHTTAAKALMSAFYTFRYPLSLSPDDCRGVQHLYGQPWPTVTSRTPALG
B2: MMP7 (Enzo) (protein)
chain: YSLFPNSPKWTSKVVTYRIVSYTRDLPHITVDRLVSKALNMWGKEIPLHFRKVVWGTADIMIGFARGAHGDSYPFDGPGNTLAHAFAPGTGLGGDAHFDEDERWTDGSSLGINFLYAATHELGHSLGMGHSSDPNAVMYPTYGNGDPQNFKLSQDDIKGIQKLYGKRSNSRKK
B3: MMP12 (Enzo) (protein)
chain: GPVWRKHYITYRINNYTPDMNREDVDYAIRKAFQVWSNVTPLKFSKINTGMADILVVFARGAHGDFHAFDGKGGILAHAFGPGSGIGGDAHFDEDEFWTTHSGGTNLFLTAVHEIGHSLGLGHSSDPKAVMFPTYKYVDINTFRLSADDIRGIQSLYG
B4: MMP1 (Enzo) (protein)
chain: FVLTEGNPRWEQTHLTYRIENYTPDLPRADVDHAIEKAFQLWSNVTPLTFTKVSEGQADIMISFVRGDHRDNSPFDGPGGNLAHAFQPGPGIGGDAHFDEDERWTNNFREYNLHRVAAHELGHSLGLSHSTDIGALMYPSYTFSGDVQLAQDDIDGIQAIYGRSQNPVQP

The data set addresses Indicator molecule containing the cleavable sequence GPQGIFGQ with a terminal biotin group connected via a polyethylene glycol spacer/linker (intact, Examples 1-6).
With B1, the Reader value (lateral flow, CF1522-gold) with MMP at 0.5 ug/ml turned out to be 280 reader units.
With B2, the Reader value (lateral flow, CF1522-gold) with MMP at 0.5 ug/ml stood at 373 reader units.
For the protein B3, the Reader value (lateral flow, CF1522-gold) with MMP at 0.5 ug/ml came out at 1250 reader units.
Under B4 stands 478 reader units.
